We go through 47 substances from the array DNA melting data of Ke et al..

This series in a line: melting temperature; melt of duplexes. Conditions: sodium 0.0675 M; strand 1 µM.
For orientation: Tm means the temperature at which the thermal transition is half complete. With “CGACGTGCGGAATGTGCTG+CAGCACATCCAGCACGTCG ((((((((.(.((((((((+)))))))).).))))))))”, the Tm amounted to 55.1 °C.

As to “CGACGTGCAGCATGTGCTG+CAGCACATGACGCACGTCG ((((((((..(((((((((+)))))))))..))))))))”, the Tm was 52 °C.

For the substance “CGACGTGCGAGATGTGCTG+CAGCACATAGGGCACGTCG ((((((((...((((((((+))))))))...))))))))”, the midpoint of thermal melting (Tm) came out at 50.7 °C.

Regarding “CGACGTGCTGTATGTGCTG+CAGCACATGGCGCACGTCG ((((((((...((((((((+))))))))...))))))))”, the Tm stood at 48.9 °C.

For “CGACGTGCACTATGTGCTG+CAGCACATCCTGCACGTCG (((((((((..((((((((+))))))))..)))))))))”, the Tm was 44.9 °C.

For “CGACGTGCTCTATGTGCTG+CAGCACATCAAGCACGTCG (((((((((..((((((((+))))))))..)))))))))”, the Tm was found to be 51.1 °C.

Turning to “CGACGTGCGAGATGTGCTG+CAGCACATGGGGCACGTCG ((((((((...((((((((+))))))))...))))))))”, the Tm worked out at 51.1 °C.

Take “CGACGTGCGTAATGTGCTG+CAGCACATACTGCACGTCG ((((((((...((((((((+))))))))...))))))))”: the Tm stood at 52.4 °C.

Turning to “CGACGTGCCTTATGTGCTG+CAGCACATTGGGCACGTCG (((((((((..((((((((+))))))))..)))))))))”, the Tm turned out to be 55 °C.

For the substance “CGACGTGCCGAATGTGCTG+CAGCACATTCCGCACGTCG ((((((((.((((((((((+)))))))))).))))))))”, the Tm is 56 °C.

As for “CGACGTGCTAGATGTGCTG+CAGCACATTTCGCACGTCG ((((((((.(.((((((((+)))))))).).))))))))”, the Tm is 50.1 °C.

In the case of “CGACGTGCTCGATGTGCTG+CAGCACATGTTGCACGTCG ((((((((...((((((((+))))))))...))))))))”, the Tm came out at 49.5 °C.

Turning to “CGACGTGCCTAATGTGCTG+CAGCACATTTAGCACGTCG ((((((((..(((((((((+)))))))))..))))))))”, the Tm was 51.5 °C.

In the case of “CGACGTGCGCCATGTGCTG+CAGCACATGTCGCACGTCG (((((((((.(((((((((+))))))))).)))))))))”, the Tm was determined as 59.7 °C.

As to “CGACGTGCCTTATGTGCTG+CAGCACATACGGCACGTCG (((((((((.(((((((((+))))))))).)))))))))”, the Tm was 56.1 °C.

As for “CGACGTGCGCAATGTGCTG+CAGCACATCAAGCACGTCG ((((((((...((((((((+))))))))...))))))))”, the Tm stood at 53.1 °C.

Take “CGACGTGCGCCATGTGCTG+CAGCACATTTCGCACGTCG (((((((((..((((((((+))))))))..)))))))))”: the Tm came to 51.6 °C.

Turning to “CGACGTGCCGTATGTGCTG+CAGCACATGCCGCACGTCG ((((((((.(.((((((((+)))))))).).))))))))”, the Tm was 51.6 °C.

For “CGACGTGCACGATGTGCTG+CAGCACATGAAGCACGTCG ((((((((...((((((((+))))))))...))))))))”, the Tm was 46.2 °C.

With “CGACGTGCACCATGTGCTG+CAGCACATAACGCACGTCG ((((((((...((((((((+))))))))...))))))))”, the Tm was 43.8 °C.

Take “CGACGTGCGCAATGTGCTG+CAGCACATGCGGCACGTCG ((((((((...((((((((+))))))))...))))))))”: the Tm stood at 56.3 °C.

With “CGACGTGCAGGATGTGCTG+CAGCACATAAGGCACGTCG ((((((((...((((((((+))))))))...))))))))”, the Tm turned out to be 50.8 °C.

Consider “CGACGTGCGCAATGTGCTG+CAGCACATATGGCACGTCG ((((((((...((((((((+))))))))...))))))))”, for which the Tm worked out at 50.7 °C.

Turning to “CGACGTGCACAATGTGCTG+CAGCACATATGGCACGTCG ((((((((...((((((((+))))))))...))))))))”, the Tm is 47.7 °C.

For “CGACGTGCTATATGTGCTG+CAGCACATTGAGCACGTCG (((((((((..((((((((+))))))))..)))))))))”, the Tm turned out to be 52.9 °C.

As to “CGACGTGCCGGATGTGCTG+CAGCACATACGGCACGTCG ((((((((((.((((((((+)))))))).))))))))))”, the Tm was 63.8 °C.

As for “CGACGTGCGACATGTGCTG+CAGCACATCTAGCACGTCG ((((((((.(.((((((((+)))))))).).))))))))”, the Tm was found to be 51.5 °C.

On to “CGACGTGCGTCATGTGCTG+CAGCACATGTGGCACGTCG ((((((((..(((((((((+)))))))))..))))))))”, for which the melting temperature (Tm) worked out at 54.8 °C.

Turning to “CGACGTGCCGTATGTGCTG+CAGCACATTTTGCACGTCG ((((((((...((((((((+))))))))...))))))))”, the Tm is 47.5 °C.

Turning to “CGACGTGCGACATGTGCTG+CAGCACATTCGGCACGTCG ((((((((...((((((((+))))))))...))))))))”, the Tm was found to be 51.9 °C.

Consider “CGACGTGCCAGATGTGCTG+CAGCACATGCGGCACGTCG (((((((((..((((((((+))))))))..)))))))))”, for which the Tm amounted to 54.6 °C.

In the case of “CGACGTGCCGGATGTGCTG+CAGCACATGTTGCACGTCG ((((((((...((((((((+))))))))...))))))))”, the Tm is 48.1 °C.

Consider “CGACGTGCGCGATGTGCTG+CAGCACATCCGGCACGTCG ((((((((..(((((((((+)))))))))..))))))))”, for which the Tm stood at 55 °C.

Turning to “CGACGTGCCTAATGTGCTG+CAGCACATTAGGCACGTCG (((((((((((((((((((+)))))))))))))))))))”, the Tm was found to be 63.6 °C.

“CGACGTGCATGATGTGCTG+CAGCACATGAAGCACGTCG ((((((((.(.((((((((+)))))))).).))))))))”: the Tm was determined as 50.3 °C.

As to “CGACGTGCCTTATGTGCTG+CAGCACATCGGGCACGTCG (((((((((..((((((((+))))))))..)))))))))”, the Tm worked out at 53.1 °C.

For “CGACGTGCAGAATGTGCTG+CAGCACATTGGGCACGTCG ((((((((..(((((((((+)))))))))..))))))))”, the Tm was 53.8 °C.

In the case of “CGACGTGCAACATGTGCTG+CAGCACATGGTGCACGTCG (((((((((.(((((((((+))))))))).)))))))))”, the Tm amounted to 60 °C.

For “CGACGTGCACTATGTGCTG+CAGCACATACGGCACGTCG ((((((((..(((((((((+)))))))))..))))))))”, the Tm came out at 46 °C.

Consider “CGACGTGCTTAATGTGCTG+CAGCACATCATGCACGTCG ((((((((.(.((((((((+)))))))).).))))))))”, for which the Tm is 50.3 °C.

On to “CGACGTGCGCAATGTGCTG+CAGCACATGTCGCACGTCG (((((((((..((((((((+))))))))..)))))))))”, for which the Tm stood at 56.1 °C.

As for “CGACGTGCGGTATGTGCTG+CAGCACATCACGCACGTCG (((((((((..((((((((+))))))))..)))))))))”, the Tm was 56.7 °C.

As for “CGACGTGCGTGATGTGCTG+CAGCACATGTTGCACGTCG ((((((((...((((((((+))))))))...))))))))”, the Tm was found to be 50 °C.

For “CGACGTGCACTATGTGCTG+CAGCACATTACGCACGTCG ((((((((...((((((((+))))))))...))))))))”, the Tm amounted to 43.6 °C.

For “CGACGTGCACTATGTGCTG+CAGCACATGCGGCACGTCG ((((((((...((((((((+))))))))...))))))))”, the Tm was 43.3 °C.

As to “CGACGTGCAGAATGTGCTG+CAGCACATCAAGCACGTCG ((((((((...((((((((+))))))))...))))))))”, the Tm is 50.6 °C.

Take “CGACGTGCTCTATGTGCTG+CAGCACATTCTGCACGTCG ((((((((...((((((((+))))))))...))))))))”: the Tm came to 47.8 °C.
